Experimental data reported in publication PMC11299580, “Discovery of novel disease-causing mutation in SSBP1 and its correction using adenine base editor to improve mitochondrial function” (Molecular Therapy. Nucleic Acids, 2023).

Assays:
[1] = target: the molecule itself; assay: cross-linking; glutaraldehyde cross-linking of recombinant SSBP1 proteins, SDS-PAGE with Coomassie staining and SSBP1 immunoblot, band intensities quantified with ImageJ (n = 3)
SSBP1 wild-type = target: T1, SSBP1 wild-type (Homo sapiens, UniProt Q04837 17-148); assay: EMSA; probe 0.25 uM (far above Kd); legend gives protein 0-2 nM, main text figure 1 uM; units doubtful; 50 mM Tris pH 7.5, 150 mM NaCl, 10% glycerol, 30 min at room temperature; 2% agarose gel in 1x TBE; conditions: protein: recombinant; tags: IMAC tag (probably His); chain copies: 4
T1 sequence: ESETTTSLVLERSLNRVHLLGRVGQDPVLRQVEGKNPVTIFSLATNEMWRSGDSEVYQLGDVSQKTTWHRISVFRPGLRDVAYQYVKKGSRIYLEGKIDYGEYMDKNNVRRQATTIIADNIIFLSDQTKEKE

B1: single-stranded DNA-binding protein 1 (SSBP1), wild-type recombinant protein (natural protein, human, UniProt Q04837 17-148, looked up)
chain: ESETTTSLVLERSLNRVHLLGRVGQDPVLRQVEGKNPVTIFSLATNEMWRSGDSEVYQLGDVSQKTTWHRISVFRPGLRDVAYQYVKKGSRIYLEGKIDYGEYMDKNNVRRQATTIIADNIIFLSDQTKEKE
notes: A human SSBP1 cDNA clone (Origene RC215106) is named only for expression in mammalian cells; also called wild-type SSBP1; source: E. coli BL21 (DE3), purified (HiTrap IMAC, dialysis, Superdex 200 SEC)
[1]
  binding result: binds

## GGACTATTTATTCAATATATTTAAGAACTAATTCCAGCTGAGCGCCGG (ssDNA) [EMSA ssDNA probe]
SSBP1 wild-type
  Kd: 11.2 ± 0.89 nM
